Publication PMC7335163

Molecular target: GFP-tagged R2910Q UNC80 mutant (mouse) (mouse) (UniProt Q8BLN6)
Experiment: co-IP; HEK293T co-transfected with NALCN or UNC79 and GFP-tagged UNC80 constructs; IP with anti-GFP, blot anti-NALCN or anti-UNC79; RIPA buffer (IP buffer with 0.5% deoxycholate and 0.1% SDS); 4 °C (Fig. 8a-c, f, g)

Chain of UniProt Q8BLN6 (Q8BLN6 whole entry R2910Q): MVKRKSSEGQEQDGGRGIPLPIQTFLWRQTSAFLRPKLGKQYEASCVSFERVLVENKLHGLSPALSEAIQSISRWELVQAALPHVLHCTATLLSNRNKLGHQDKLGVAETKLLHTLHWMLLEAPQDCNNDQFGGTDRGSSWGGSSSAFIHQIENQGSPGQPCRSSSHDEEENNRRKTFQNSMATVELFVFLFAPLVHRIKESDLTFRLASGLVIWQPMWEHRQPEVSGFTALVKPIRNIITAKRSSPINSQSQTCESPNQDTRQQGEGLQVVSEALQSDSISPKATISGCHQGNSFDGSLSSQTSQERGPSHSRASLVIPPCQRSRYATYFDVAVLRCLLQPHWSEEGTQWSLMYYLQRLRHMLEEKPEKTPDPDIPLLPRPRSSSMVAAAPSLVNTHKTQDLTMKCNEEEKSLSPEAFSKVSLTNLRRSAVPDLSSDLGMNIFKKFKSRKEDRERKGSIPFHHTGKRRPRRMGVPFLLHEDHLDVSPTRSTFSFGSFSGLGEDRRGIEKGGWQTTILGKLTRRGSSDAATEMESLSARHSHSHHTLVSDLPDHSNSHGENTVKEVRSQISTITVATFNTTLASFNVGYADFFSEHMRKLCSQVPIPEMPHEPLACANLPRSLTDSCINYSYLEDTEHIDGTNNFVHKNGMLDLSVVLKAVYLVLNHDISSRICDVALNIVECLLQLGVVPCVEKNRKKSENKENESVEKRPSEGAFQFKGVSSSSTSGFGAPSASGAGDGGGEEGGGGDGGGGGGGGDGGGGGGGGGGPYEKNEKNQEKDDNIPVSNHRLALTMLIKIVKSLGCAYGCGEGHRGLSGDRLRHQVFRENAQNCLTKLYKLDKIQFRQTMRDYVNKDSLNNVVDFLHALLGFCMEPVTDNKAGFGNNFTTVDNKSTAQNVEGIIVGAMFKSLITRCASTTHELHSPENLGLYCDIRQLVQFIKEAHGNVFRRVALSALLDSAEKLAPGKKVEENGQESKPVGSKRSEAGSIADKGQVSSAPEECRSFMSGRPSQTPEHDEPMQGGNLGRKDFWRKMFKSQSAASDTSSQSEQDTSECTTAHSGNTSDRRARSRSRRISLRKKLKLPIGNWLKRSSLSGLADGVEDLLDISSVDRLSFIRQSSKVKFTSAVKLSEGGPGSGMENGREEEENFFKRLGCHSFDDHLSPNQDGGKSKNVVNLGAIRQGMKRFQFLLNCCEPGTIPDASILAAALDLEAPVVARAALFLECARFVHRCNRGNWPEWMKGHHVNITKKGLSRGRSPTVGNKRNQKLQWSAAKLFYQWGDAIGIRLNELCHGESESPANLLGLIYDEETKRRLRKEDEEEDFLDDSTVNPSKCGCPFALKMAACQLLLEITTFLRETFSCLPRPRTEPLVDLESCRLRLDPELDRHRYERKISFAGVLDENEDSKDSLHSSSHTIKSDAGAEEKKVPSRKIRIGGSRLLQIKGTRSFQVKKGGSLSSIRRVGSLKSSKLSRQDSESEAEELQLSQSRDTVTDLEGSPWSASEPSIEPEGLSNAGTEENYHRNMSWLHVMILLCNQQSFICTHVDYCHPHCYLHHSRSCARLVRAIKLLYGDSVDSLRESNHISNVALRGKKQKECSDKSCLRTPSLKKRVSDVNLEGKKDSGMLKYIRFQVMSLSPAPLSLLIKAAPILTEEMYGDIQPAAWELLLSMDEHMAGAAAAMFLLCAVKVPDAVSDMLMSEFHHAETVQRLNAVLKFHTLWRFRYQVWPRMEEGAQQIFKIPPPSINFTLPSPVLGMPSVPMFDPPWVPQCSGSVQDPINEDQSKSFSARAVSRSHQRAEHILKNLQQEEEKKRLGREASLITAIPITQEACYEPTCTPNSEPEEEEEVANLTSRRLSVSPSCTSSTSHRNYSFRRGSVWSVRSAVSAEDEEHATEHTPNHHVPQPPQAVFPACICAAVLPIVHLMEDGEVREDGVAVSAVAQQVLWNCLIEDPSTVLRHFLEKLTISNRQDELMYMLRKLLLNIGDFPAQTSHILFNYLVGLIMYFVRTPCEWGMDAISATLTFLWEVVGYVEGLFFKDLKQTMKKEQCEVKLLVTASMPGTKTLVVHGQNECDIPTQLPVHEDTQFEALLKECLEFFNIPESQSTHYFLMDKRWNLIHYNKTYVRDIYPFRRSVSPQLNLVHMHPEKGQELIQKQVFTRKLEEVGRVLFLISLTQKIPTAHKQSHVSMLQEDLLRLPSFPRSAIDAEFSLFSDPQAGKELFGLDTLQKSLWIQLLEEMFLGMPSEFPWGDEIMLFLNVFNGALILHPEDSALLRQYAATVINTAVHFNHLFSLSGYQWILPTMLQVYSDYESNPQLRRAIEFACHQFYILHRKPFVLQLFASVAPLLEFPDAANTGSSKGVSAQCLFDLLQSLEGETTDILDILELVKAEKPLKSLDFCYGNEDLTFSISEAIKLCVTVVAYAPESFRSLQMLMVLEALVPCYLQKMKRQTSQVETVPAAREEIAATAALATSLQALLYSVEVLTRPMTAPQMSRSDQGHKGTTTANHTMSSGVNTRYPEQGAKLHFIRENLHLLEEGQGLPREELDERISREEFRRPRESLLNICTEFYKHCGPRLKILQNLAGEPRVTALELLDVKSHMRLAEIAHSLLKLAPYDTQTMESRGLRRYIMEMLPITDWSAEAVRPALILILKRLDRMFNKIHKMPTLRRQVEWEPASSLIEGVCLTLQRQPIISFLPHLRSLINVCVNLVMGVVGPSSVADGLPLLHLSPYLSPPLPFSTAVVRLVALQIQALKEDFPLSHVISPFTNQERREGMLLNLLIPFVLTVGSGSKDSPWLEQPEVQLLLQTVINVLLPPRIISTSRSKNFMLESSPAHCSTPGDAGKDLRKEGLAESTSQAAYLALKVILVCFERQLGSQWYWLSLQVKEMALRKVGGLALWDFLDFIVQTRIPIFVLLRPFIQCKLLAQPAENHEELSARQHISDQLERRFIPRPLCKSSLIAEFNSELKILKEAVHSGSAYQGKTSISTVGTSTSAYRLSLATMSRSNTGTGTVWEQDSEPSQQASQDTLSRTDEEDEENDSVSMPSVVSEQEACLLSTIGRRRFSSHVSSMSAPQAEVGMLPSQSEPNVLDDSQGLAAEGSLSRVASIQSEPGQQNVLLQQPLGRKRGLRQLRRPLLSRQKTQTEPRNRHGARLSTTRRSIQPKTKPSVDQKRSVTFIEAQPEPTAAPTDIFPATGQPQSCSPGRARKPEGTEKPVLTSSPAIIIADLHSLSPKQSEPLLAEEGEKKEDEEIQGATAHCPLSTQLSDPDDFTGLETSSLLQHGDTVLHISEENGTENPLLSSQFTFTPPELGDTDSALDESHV

Substance: UNC79 (mouse), wild type, non-tagged, Q0KK59 1-2596
- reduction of apparent UNC80–UNC79 affinity (co-precipitated UNC79) against WT UNC80: 60%
